Source: patent US20200231674A1 (published 2020)

Biological target: T1, human CD8 alpha (on transfected HEK293T cells) (human, UniProt P01732 22-235)
T1 construct: whole, on cells
Test: FACS on HEK293-T cells transfected with human CD8a (Example 2, FIG. 4)
Procedure: The binding characteristics of various VHHs (as described in Example 1) were tested by flow cytometry. HEK293-T cells were transfected with a human CD8a expression plasmid and stained with the His-tagged VHHs at […], followed by staining with an anti-His Fitc conjugated antibody. Binding was measured by detecting cellular fluorescence via flow cytometry.

T1 sequence (P01732 22-235): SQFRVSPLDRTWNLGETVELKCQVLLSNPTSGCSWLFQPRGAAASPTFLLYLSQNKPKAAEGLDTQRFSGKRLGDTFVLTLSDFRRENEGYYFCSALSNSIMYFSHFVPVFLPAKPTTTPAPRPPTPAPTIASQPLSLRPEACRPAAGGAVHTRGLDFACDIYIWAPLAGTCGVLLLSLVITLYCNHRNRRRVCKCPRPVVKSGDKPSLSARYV

B1: 2CDA 74 (VHH)
VHH: QVQLQESGGGLVQAGGSLRLSCAVSGFTFDNYAIGWFRQAPGKEREGVSCISRSDGSTYYADSVRGRFTISSDNAKNTVYLQMNSLKPEDTAVYYCAAETSADSGEFRFGWVLKPSLYDYWGQGTQVTVSS
notes: entry carries AAA-HA-His6 tail (pMECS format); free cysteine in CDR2 at position 50
Question: Does B1 bind?
Answer: binds
